PMC9774250

Assays:
[1] = test system: apo-YgaV (His-tagged) (Escherichia coli (WT genomic DNA; BW25113?)); experiment: EMSA; details: EMSA: 50 nM probe, 25 mM Tris-HCl pH 8.0, 100 mM NaCl, 2 mM MgCl2, 6% glycerol, 50 mg/mL heparin (so in the source), room temperature 30 min, footprint: 100 nM DNA …
[2] = test system: heme-YgaV (His-tagged, hemin-reconstituted) (Escherichia coli (WT genomic DNA; BW25113?)); experiment: EMSA; details: heme; 10 mM Na2S (oxidized); EMSA: 50 nM probe, 25 mM Tris-HCl pH 8.0, 100 mM NaCl, 2 mM MgCl2, 6% glycerol, 50 mg/mL heparin (so in the source), room temperature 30 min; footprint: 100 nM DNA …

| Substance | binding signal ([1]; 1 mM DTT (reduced), scale: fold higher YgaV concentration for shift than ygaV promoter) | binding signal (fold higher EC50 than DTT-reduced) ([1]; 10 mM Na2S (oxidized)) | binding signal (fold higher EC50 than DTT-reduced) [2] |
| --- | --- | --- | --- |
| katG promoter | 20 |  |  |
| ygaVP promoter |  | 5 | 5 |
